Experimental data as given in patent US20070224178A1 (Sanofi, published 2007).
One block for each molecule: values may come before it.

Key:
[1] = biological target: Vascular endothelial growth factor (VEGF) (Homo sapiens (Human)) (UniProt P15692); test: surface plasmon resonance (BIAcore), sFlt-1 construct immobilized on the chip, VEGF165 injected at 0.2 to 15 nM; column Ka
[2] = biological target: Vascular endothelial growth factor (VEGF) (Homo sapiens (Human)) (UniProt P15692); test: surface plasmon resonance (BIAcore), sFlt-1 construct immobilized on the chip, VEGF165 injected at 0.2 to 15 nM; column Kd
[3] = biological target: Vascular endothelial growth factor (VEGF) (Homo sapiens (Human)) (UniProt P15692); test: surface plasmon resonance (BIAcore), sFlt-1 construct immobilized on the chip, VEGF165 injected at 0.2 to 15 nM; the column head prints KD (nM), but the printed Kd/Ka (1.22e-3 / 2.71e6) gives about 4.5e-10 M
[4] = biological target: T1, Vascular endothelial growth factor (VEGF) (Homo sapiens (Human), UniProt P15692 181-395); test: solution binding assay: serially diluted conditioned medium with soluble receptor mixed with 10 pM VEGF, unbound VEGF measured by ELISA
T1 construct: also called VEGF165; VEGF A
T1 sequence: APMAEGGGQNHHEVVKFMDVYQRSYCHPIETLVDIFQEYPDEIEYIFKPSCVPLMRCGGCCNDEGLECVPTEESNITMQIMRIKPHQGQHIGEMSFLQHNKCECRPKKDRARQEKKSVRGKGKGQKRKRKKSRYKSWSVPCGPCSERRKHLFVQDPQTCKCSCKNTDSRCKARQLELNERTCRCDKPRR
Description: FIG. 11. VEGF “in vitro” binding assay. Conditioned media from 293 cells containing known concentrations of both D2-9Gly-Fc and Flt-1 D(1-3) control soluble receptors (ranging in concentrations from 0.29-150 pM) were serially diluted and mixed with 10 pM VEGF. The amount of unbound VEGF was then measured by ELISA. D2-9Gly-Fc binds VEGF with higher affinity than all other constructs. “n” represents the number of independent experiments (transfection and binding assay).
Briefly, conditioned media containing known concentrations of soluble receptor (ranging in concentrations from 0.29-150 pM) were serially diluted and mixed with 10 pM VEGF. The amount of unbound VEGF was then measured by ELISA. […] D2-CH3 has the lowest affinity to bind VEGF (FIG. 11).

B2: D2-9Gly-CH3 (other)
chain: PFVEMYSEIPEIIHMTEGRELVIPCRVTSPNITVTLKKFPLDTLIPDGKRIIWDSRKGFIISNATYKEIGLLTCEATVNGHLYKTNYLTHRQTGGGGGGGGGGQPREPQVYTLPPSREEMTKNQVSLTCLVKGFYPSDIAVEWESNGQPENNYKTTPPVLDSDGSFFLYSKLTVDKSRWQQGNVFSCSVMHEALHNHYTQKSLSLSPGK
notes: domain: Flt-1 domain 2; Conditioned medium of transfected 293 cells
IC50 (read off the curve) [4]: ~0.5 pM

B3: D(1-3) (receptor, human (by the accession given in p-0034), UniProt P17948 27-328, looked up)
soluble receptor fragment: SKLKDPELSLKGTQHIMQAGQTLHLQCRGEAAHKWSLPEMVSKESERLSITKSACGRNGKQFCSTLTLNTAQANHTGFYSCKYLAVPTSKKKETESAIYIFISDTGRPFVEMYSEIPEIIHMTEGRELVIPCRVTSPNITVTLKKFPLDTLIPDGKRIIWDSRKGFIISNATYKEIGLLTCEATVNGHLYKTNYLTHRQTNTIIDVQISTPRPVKLLRGHTLVLNCTATTPLNTRVQMTWSYPDEKNKRASVRRRIDQSNSHANIFYSVLTIDKMQNKDKGLYTCRVRSGPSFKSVNTSVHI
notes: soluble fragment, Ig-like domains 1-3; made in conditioned medium of 293 cells; also called Flt-1 D(1-3) control soluble receptor
IC50 (read off the curve) [4]: ~1 pM

Other lines, results leading:

kon [1]: 2.71e+06 M⁻¹ s⁻¹
koff [2]: 0.00122 s⁻¹
Kd [3]: 448 pM
Molecule: rFlt-1(Fc)(R&D) (from UniProt P17948-2) (Fc fusion)

IC50 (read off the curve) [4]: ~0.9 pM
B1: D2-9Gly-Ex3/CH3 (other)
chain: PFVEMYSEIPEIIHMTEGRELVIPCRVTSPNITVTLKKFPLDTLIPDGKRIIWDSRKGFIISNATYKEIGLLTCEATVNGHLYKTNYLTHRQTGGGGGGGGGPSCVPLMRCGGCCNGQPREPQVYTLPPSREEMTKNQVSLTCLVKGFYPSDIAVEWESNGQPENNYKTTPPVLDSDGSFFLYSKLTVDKSRWQQGNVFSCSVMHEALHNHYTQKSLSLSPGK
notes: as for B2
